Positions count from the first letter of the chain named. Where two headings read alike, the source gives them in different places.
B1: 136-14 (antibody, V domains shown)
VH: QVQLVQSGGGVVQPGRSLRLSCAASGFTFSSYGMHWVRQAPGKGLEWVAFIRYDGSNKYYADSVKGRFTISRDNSKNTLYLQMKSLRAEDTAVYYCTTHGSHDNWGQGTMVTVSS
VL: SYVLTQPPSVSGTPGQRVTISCSGGRSNIGSNTVKWYQQLPGTAPKLLIYGNDQRPSGVPDRFSGSKSGTSASLAITGVQAEDEADYYCQTYDRGFTGSRVFGTGTKVTVL
B2: 136-16 (antibody, V domains shown)
VH: B1 VH
VL: B1 VL with T91S, G95R
B3: Joe9 wt IgG1 (antibody, V domains shown)
VH: not shown
VL: SYVLTQPPSVSGTPGQRVTISCSGGRSNIGSNTVKWYQQLPGTAPKLLIYGNDQRPSGVPDRFSGSKSGTSASLAITGVQAEDEADYYCQSYDSSLRG
B4: SEQ ID NO: 502 (Y61, V at L32) (antibody, V domains shown)
VH: B1 VH with T97K
VL: SYVLTQPPSVSGTPGQRVTISCSGGRSNIGSNVVKWYQQLPGTAPKLLIYGNDQRPSGVPDRFSGSKSGTSASLAITGVQAEDEADYYCQSYDRGTHPALLFGTGTKVTVLG
B5: SEQ ID NO: 503 (Y61, L at L32) (antibody, V domains shown)
VH: B1 VH with T97K
VL: B4 VL with V33L
B6: SEQ ID NO: 504 (Y61, I at L32) (antibody, V domains shown)
VH: B1 VH with T97K
VL: B4 VL with V33I
B7: SEQ ID NO: 505 (Y61, P at L32) (antibody, V domains shown)
VH: B1 VH with T97K
VL: B4 VL with V33P
B8: SEQ ID NO: 506 (Y61, D at L50) (antibody, V domains shown)
VH: B1 VH with T97K
VL: B4 VL with V33T, G51D
B9: SEQ ID NO: 507 (Y61, E at L50) (antibody, V domains shown)
VH: B1 VH with T97K
VL: B4 VL with V33T, G51E
B10: SEQ ID NO: 508 (Y61, C at L50) (antibody, V domains shown)
VH: B1 VH with T97K
VL: B4 VL with V33T, G51C
B11: SEQ ID NO: 509 (Y61, S at L50) (antibody, V domains shown)
VH: B1 VH with T97K
VL: B4 VL with V33T, G51S
B12: SEQ ID NO: 511 (Y61, H at L50) (antibody, V domains shown)
VH: B1 VH with T97K
VL: B4 VL with V33T, G51H
B13: SEQ ID NO: 512 (Y61, K at L50) (antibody, V domains shown)
VH: B1 VH with T97K
VL: B4 VL with V33T, G51K
B14: SEQ ID NO: 513 (Y61, R at L50) (antibody, V domains shown)
VH: B1 VH with T97K
VL: B4 VL with V33T, G51R
B15: SEQ ID NO: 514 (Y61, N at L50) (antibody, V domains shown)
VH: B1 VH with T97K
VL: B4 VL with V33T, G51N
B16: SEQ ID NO: 515 (Y61, Q at L50) (antibody, V domains shown)
VH: B1 VH with T97K
VL: B4 VL with V33T, G51Q
B17: SEQ ID NO: 516 (Y61, T at L50) (antibody, V domains shown)
VH: B1 VH with T97K
VL: B4 VL with V33T, G51T
B18: SEQ ID NO: 518 (Y61, A at L50) (antibody, V domains shown)
VH: B1 VH with T97K
VL: B4 VL with V33T, G51A
B19: SEQ ID NO: 519 (Y61, V at L50) (antibody, V domains shown)
VH: B1 VH with T97K
VL: B4 VL with V33T, G51V
B20: SEQ ID NO: 520 (Y61, M at L50) (antibody, V domains shown)
VH: B1 VH with T97K
VL: B4 VL with V33T, G51M
B21: SEQ ID NO: 521 (Y61, L at L50) (antibody, V domains shown)
VH: B1 VH with T97K
VL: B4 VL with V33T, G51L
B22: SEQ ID NO: 522 (Y61, I at L50) (antibody, V domains shown)
VH: B1 VH with T97K
VL: B4 VL with V33T, G51I
B23: SEQ ID NO: 523 (Y61, P at L50) (antibody, V domains shown)
VH: B1 VH with T97K
VL: B4 VL with V33T, G51P
B24: SEQ ID NO: 524 (Y61, W at L50) (antibody, V domains shown)
VH: B1 VH with T97K
VL: B4 VL with V33T, G51W
B25: SEQ ID NO: 525 (Y61, F at L50) (antibody, V domains shown)
VH: B1 VH with T97K
VL: B4 VL with V33T, G51F
B26: SEQ ID NO: 526 (Y61, S at L53) (antibody, V domains shown)
VH: B1 VH with T97K
VL: B4 VL with V33T, Q54S
B27: SEQ ID NO: 527 (Y61, Y at L53) (antibody, V domains shown)
VH: B1 VH with T97K
VL: B4 VL with V33T, Q54Y
B28: SEQ ID NO: 528 (Y61, R at L53) (antibody, V domains shown)
VH: B1 VH with T97K
VL: B4 VL with V33T, Q54R
B29: SEQ ID NO: 530 (Y61, T at L53) (antibody, V domains shown)
VH: B1 VH with T97K
VL: B4 VL with V33T, Q54T
B30: SEQ ID NO: 531 (Y61, A at L53) (antibody, V domains shown)
VH: B1 VH with T97K
VL: B4 VL with V33T, Q54A
B31: SEQ ID NO: 532 (Y61, I at L53) (antibody, V domains shown)
VH: B1 VH with T97K
VL: B4 VL with V33T, Q54I
B32: SEQ ID NO: 533 (Y61, P at L53) (antibody, V domains shown)
VH: B1 VH with T97K
VL: B4 VL with V33T, Q54P
B33: 73-B1 (antibody, V domains shown)
VH: B1 VH with H99S, H102Y, N104Y
VL: B4 VL with V33T, Q90H, R94S, G95D, T96F, H97T, P98G, A99S, L100R, L101V
B34: 73-B6 (antibody, V domains shown)
VH: B1 VH with H99S, H102Y, N104Y
VL: B4 VL with V33T, Q90H, R94N, G95R, T96F, H97T, P98G, A99S, L100R, L101V
B35: 73-C1 (antibody, V domains shown)
VH: B1 VH with H99S, H102Y, N104Y
VL: B4 VL with V33T, Q90H, R94S, G95R, T96F, H97T, P98G, A99S, L100R, L101V
B36: 136-10 (antibody, V domains shown)
VH: B1 VH with N104D
VL: B1 VL with T91S
B37: 136-21 (antibody, V domains shown)
VH: B1 VH
VL: B1 VL with T91S, R94N
B38: 136-15M1 (antibody, V domains shown)
VH: B1 VH with T97A, T98K
VL: B4 VL with V33T, T96F, H97T, P98G, A99S, L100R, L101V

Tests used:
human interleukin 12 [1] = molecular target: T1, human interleukin 12 (human, UniProt P29459 23-219; P29460 23-328); assay: SPR (BIAcore)
T1 construct: heterodimer of p35 and p40 linked by a disulfide bridge; also called hIL-12; IL-12
T1 sequence (looked up) 1: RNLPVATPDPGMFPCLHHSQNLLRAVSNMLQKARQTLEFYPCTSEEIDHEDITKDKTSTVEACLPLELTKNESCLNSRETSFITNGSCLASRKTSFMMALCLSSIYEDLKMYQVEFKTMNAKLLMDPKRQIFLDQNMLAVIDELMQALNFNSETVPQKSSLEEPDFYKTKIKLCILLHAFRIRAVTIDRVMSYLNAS
T1 sequence (looked up) 2: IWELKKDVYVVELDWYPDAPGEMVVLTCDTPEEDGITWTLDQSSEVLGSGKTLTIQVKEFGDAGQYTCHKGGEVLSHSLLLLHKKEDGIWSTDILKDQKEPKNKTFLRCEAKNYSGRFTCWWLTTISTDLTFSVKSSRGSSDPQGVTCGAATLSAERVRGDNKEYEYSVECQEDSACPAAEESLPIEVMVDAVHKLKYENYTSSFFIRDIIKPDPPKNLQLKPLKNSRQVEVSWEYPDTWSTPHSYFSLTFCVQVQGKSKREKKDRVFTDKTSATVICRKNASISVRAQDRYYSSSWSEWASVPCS

human interleukin 12 [2] = molecular target: T1, human interleukin 12; assay: cell-based or functional assay
human interleukin 12 [3] = molecular target: T1, human interleukin 12; assay: RB assay (IL-12 receptor binding)
[4] = molecular target: T2, human interleukin 12 (p70 heterodimer of p35 and p40) (human, UniProt P29459 23-219; P29460 23-328); assay: SPR (BIAcore), off-rate
T2 construct: Recombinant human IL-12; also called hIL-12; IL-12
T2 sequence (looked up) 1: T1 sequence (looked up) 1
T2 sequence (looked up) 2: T1 sequence (looked up) 2

[5] = molecular target: T2, human interleukin 12 (p70 heterodimer …); assay: SPR (BIAcore), off-rate; remark: listed apart in the source

Row | Binder | koff [5] [s⁻¹] | also measured
1 | B1 |  | koff (human interleukin 12 [1]): 0.0011 s⁻¹; PHA assay IC50 (human interleukin 12 [2]): 100 nM; IC50 (human interleukin 12 [3]): 0.3 nM
2 | B2 |  | koff (human interleukin 12 [1]): 0.00061 s⁻¹; PHA assay IC50 (human interleukin 12 [2]): 5 nM; IC50 (human interleukin 12 [3]): 0.3 nM
3 | B3 |  | PHA assay IC50 (human interleukin 12 [2]): 500 nM
4 | B4 |  | koff [4]: 0.00164 s⁻¹
5 | B5 |  | koff [4]: 0.00215 s⁻¹
6 | B6 |  | koff [4]: 0.00154 s⁻¹
7 | B7 |  | koff [4]: 0.000424 s⁻¹
8 | B8 | 0.000348 | 
9 | B9 | 0.000617 | 
10 | B10 | 0.000467 | 
11 | B11 | 0.000286 | 
12 | B12 | 0.000761 | 
13 | B13 | 0.00243 | 
14 | B14 | 0.000444 | 
15 | B15 | 0.000305 | 
16 | B16 | 0.000348 | 
17 | B17 | 0.000272 | 
18 | B18 | 0.000372 | 
19 | B19 | 0.000385 | 

Row | Binder | koff [5] [s⁻¹] | also measured
20 | B20 | 0.000953 | 
21 | B21 | 0.000616 | 
22 | B22 | 0.0012 | 
23 | B23 | 0.00041 | 
24 | B24 | 0.000382 | 
25 | B25 | 0.0348 | 
26 | B26 | 0.000866 | 
27 | B27 | 0.000733 | 
28 | B28 | 0.000614 | 
29 | B29 | 0.000834 | 
30 | B30 | 0.000554 | 
31 | B31 | 0.000855 | 
32 | B32 | 0.000974 | 
33 | B33 |  | koff (human interleukin 12 [1]): 0.00325 s⁻¹; IC50 (human interleukin 12 [3]): > 10 nM
34 | B34 |  | koff (human interleukin 12 [1]): 0.00251 s⁻¹; IC50 (human interleukin 12 [3]): > 10 nM
35 | B35 |  | koff (human interleukin 12 [1]): 0.00271 s⁻¹; IC50 (human interleukin 12 [3]): > 10 nM
36 | B36 |  | koff (human interleukin 12 [1]): 0.0014 s⁻¹; IC50 (human interleukin 12 [3]): 2 nM
37 | B37 |  | koff (human interleukin 12 [1]): 0.00042 s⁻¹; IC50 (human interleukin 12 [3]): 2 nM
38 | B38 |  | IC50 (human interleukin 12 [3]): 0.4 nM

Reference: patent US20120219562A1 (AbbVie / Abbott, published 2012)
